Laboratory results: patent publication CN112409487A (NINGBO SAIPO BIOTECHNOLOGY CO LTD, dated 2021)

Molecular target: T1, 人可溶性转铁蛋白受体校准品 (human, UniProt P02786 101-760, limits assumed)
T1 construct: also called sTfR校准品
Assay: double-antibody sandwich latex immunoturbidimetry on the calibrator, OD570nm

T1 sequence (P02786 101-760 limits assumed): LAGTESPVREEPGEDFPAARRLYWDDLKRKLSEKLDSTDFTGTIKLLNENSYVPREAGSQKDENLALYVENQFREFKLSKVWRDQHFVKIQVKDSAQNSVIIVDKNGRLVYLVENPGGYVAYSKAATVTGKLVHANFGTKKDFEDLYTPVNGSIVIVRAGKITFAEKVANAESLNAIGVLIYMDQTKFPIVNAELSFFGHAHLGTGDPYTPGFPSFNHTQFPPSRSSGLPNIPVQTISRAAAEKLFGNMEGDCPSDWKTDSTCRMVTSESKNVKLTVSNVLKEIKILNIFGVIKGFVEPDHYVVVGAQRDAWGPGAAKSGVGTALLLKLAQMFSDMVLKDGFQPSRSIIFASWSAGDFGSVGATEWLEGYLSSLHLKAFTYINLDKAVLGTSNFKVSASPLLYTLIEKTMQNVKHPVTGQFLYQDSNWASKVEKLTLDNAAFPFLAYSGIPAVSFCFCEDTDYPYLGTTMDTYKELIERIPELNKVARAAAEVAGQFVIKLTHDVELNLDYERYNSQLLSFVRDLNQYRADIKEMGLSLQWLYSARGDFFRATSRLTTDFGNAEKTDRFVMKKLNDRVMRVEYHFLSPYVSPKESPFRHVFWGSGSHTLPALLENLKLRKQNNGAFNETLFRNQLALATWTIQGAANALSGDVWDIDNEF

binding result: binds
B1: 鼠单克隆抗体8E11 (antibody, V domains shown)
VH: QVQLQQSGAELVRPGTSVKISCKASGYAFTNYWLGWVKQRPGRGLEWIGDIFPGSSNTYYNEKFKGKASLTADKSSSTAYMHLSSLTSEDSAVYFCARVKDYYAMGYWGQGTSVTVSS
VL: ENVLTQSPAIMSASPGEKVTMTCSASSSVSYMNWYQQKSITSPKLWIYDTFKLASGVPGRFSGSGSGNSYSLTISSMEAEDVATYYCFQGSGYPYTFGGGTKLEIK
notes: Mouse hybridoma monoclonal antibody, purified from ascites on protein G and detected with goat anti-mouse IgG; It was coupled to latex particles in the turbidimetric assay; also called 第一单克隆抗体
